# Target: Akt3 (PKB gamma) (human (printed as '(h)'), UniProt Q9Y243 1-479, limits assumed)
# Experiment: cell-based or functional assay
# Akt3 (PKB gamma) (human (printed as '(h)'), UniProt Q9Y243 1-479, limits assumed), sequence (Q9Y243 whole entry): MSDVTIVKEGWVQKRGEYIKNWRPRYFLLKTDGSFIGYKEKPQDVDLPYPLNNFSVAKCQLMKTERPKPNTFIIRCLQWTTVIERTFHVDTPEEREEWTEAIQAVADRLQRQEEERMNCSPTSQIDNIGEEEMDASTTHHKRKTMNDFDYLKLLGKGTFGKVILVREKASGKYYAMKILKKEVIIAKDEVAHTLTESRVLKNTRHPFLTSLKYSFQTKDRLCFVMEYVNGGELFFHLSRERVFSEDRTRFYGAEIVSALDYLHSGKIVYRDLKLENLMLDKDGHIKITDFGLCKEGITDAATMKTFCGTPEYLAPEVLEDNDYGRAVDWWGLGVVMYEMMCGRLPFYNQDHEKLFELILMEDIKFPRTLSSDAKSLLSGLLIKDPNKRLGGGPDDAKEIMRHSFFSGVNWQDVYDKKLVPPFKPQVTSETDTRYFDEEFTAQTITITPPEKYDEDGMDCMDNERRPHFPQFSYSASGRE
row,Binder,"Inhibitory Activity (%), cell-free in vitro kinase assay, peptide 50 µM [%]"
1,RAKAKAAAAR [RAKAKAAAAR peptide],52
2,RAAKAARAAK [RAAKAARAAK peptide],2

# Continued, values first:
row,"Inhibitory Activity (%), cell-free in vitro kinase assay, peptide 50 µM [%]",Binder
1,8,RSKAKNPLYR [RSKAKNPLYR peptide (β6 integrin derived)]
2,93,RVKVKVVVVR [RVKVKVVVVR peptide]

# Target: Akt2 (PKB beta) (human (printed as '(h)'), UniProt P31751 1-481, limits assumed)
# Experiment: cell-based or functional assay
# Akt2 (PKB beta) (human (printed as '(h)'), UniProt P31751 1-481, limits assumed), sequence (P31751 whole entry): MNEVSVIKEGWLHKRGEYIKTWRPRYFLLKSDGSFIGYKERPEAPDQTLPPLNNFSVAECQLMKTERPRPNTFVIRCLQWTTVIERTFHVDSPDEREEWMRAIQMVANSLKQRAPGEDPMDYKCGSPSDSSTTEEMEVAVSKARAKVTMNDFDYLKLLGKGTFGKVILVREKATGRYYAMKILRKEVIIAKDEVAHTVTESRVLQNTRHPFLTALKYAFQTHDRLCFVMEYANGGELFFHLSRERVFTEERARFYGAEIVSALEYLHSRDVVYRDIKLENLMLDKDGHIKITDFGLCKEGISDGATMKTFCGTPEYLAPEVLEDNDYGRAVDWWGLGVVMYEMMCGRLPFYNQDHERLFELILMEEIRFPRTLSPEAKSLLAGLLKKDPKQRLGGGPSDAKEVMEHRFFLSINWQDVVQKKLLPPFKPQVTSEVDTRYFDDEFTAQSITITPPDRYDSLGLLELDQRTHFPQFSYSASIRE
row,Binder,"Inhibitory Activity (%), cell-free in vitro kinase assay, peptide 50 µM [%]"
1,RAKAKAAAAR [RAKAKAAAAR peptide],0
2,RAAKAARAAK [RAAKAARAAK peptide],0

# More lines, now with the values ahead:
row,"Inhibitory Activity (%), cell-free in vitro kinase assay, peptide 50 µM [%]",Binder
1,3,RSKAKNPLYR [RSKAKNPLYR peptide (β6 integrin derived)]
2,89,RVKVKVVVVR [RVKVKVVVVR peptide]

# Target: c-Src (h) (human (printed as '(h)'), UniProt P12931 1-536, limits assumed)
# Experiment: cell-based or functional assay
row,Binder,"Inhibitory Activity (%), cell-free in vitro kinase assay, peptide 50 µM [%]"
1,RAKAKAAAAR [RAKAKAAAAR peptide],27
2,RAAKAARAAK [RAAKAARAAK peptide],3

# Further lines, results first:
row,"Inhibitory Activity (%), cell-free in vitro kinase assay, peptide 50 µM [%]",Binder
1,53,RSKAKNPLYR [RSKAKNPLYR peptide (β6 integrin derived)]
2,43,RVKVKVVVVR [RVKVKVVVVR peptide]

# Source: patent US20150110744A1 (INTER K, published 2015)
